Data from patent US20110178027A1 (SOCIETE DE COMMERCIALISATION DES PRODUITS DE LA RECHERCHE …, published 2011).
Values joined by “and” are separate entries in the source; they are usually repeats but may differ in a detail not shown here. Equal entries are not always repeated. Each block holds one binder with its values, some of them ahead of it. No end group written: not given here.

Experiments:
PC4 = target: T1, PC4 (UniProt Q6UW60 114-708, limits assumed); assay: enzyme inhibition assay, fluorogenic substrate PyrRTKR-MCA
T1 sequence (looked up): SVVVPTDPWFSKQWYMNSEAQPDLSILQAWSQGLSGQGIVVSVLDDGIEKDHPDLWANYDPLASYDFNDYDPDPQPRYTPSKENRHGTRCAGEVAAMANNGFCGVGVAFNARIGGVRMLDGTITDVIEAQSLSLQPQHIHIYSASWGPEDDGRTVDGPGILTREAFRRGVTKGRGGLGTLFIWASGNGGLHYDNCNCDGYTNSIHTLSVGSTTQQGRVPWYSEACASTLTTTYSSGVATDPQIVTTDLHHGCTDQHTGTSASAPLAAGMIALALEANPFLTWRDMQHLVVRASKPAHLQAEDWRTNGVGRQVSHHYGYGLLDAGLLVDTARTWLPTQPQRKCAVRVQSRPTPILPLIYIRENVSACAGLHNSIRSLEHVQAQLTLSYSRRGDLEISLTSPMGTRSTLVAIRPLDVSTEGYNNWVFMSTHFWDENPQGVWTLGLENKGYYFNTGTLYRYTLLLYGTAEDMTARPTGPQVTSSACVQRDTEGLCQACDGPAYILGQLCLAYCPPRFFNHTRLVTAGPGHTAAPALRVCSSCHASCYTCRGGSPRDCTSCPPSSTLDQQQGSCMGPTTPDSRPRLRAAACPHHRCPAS
Experimental: (§1) Enzyme inhibition assays for furin (FIG. 5D) were performed in 100 mM Hepes pH 7.5, 1 mM CaCl₂, 1 mM β-mercaptoethanol, 0.5 μg/μL BSA. Assays for PC2 (FIG. 5E) were performed in 20 mM Bis-Tris pH 5.7, 1 mM CaCl₂, 0.1% Brij-30. Assays for PC1/3, PC4, PACE4, PC5/6 and PC7 (FIGS. 5F, G, A, B and C respectively) were performed in 20 mM Bis-T is pH 6.5, 1 mM CaCl₂. […] Inhibitory peptides were added to the enzymes at decreasing concentrations from 100 μM to 50 nM and incubated 5 minutes prior to the addition of substrate. […] Each Kᵢ value is the mean of 2 to 10 independent experiments.

PACE4 [1] = target: T2, PACE4 (UniProt P29122 150-969, limits assumed); assay: enzyme inhibition assay, ratio of Ki values against the other PCs
T2 sequence (looked up): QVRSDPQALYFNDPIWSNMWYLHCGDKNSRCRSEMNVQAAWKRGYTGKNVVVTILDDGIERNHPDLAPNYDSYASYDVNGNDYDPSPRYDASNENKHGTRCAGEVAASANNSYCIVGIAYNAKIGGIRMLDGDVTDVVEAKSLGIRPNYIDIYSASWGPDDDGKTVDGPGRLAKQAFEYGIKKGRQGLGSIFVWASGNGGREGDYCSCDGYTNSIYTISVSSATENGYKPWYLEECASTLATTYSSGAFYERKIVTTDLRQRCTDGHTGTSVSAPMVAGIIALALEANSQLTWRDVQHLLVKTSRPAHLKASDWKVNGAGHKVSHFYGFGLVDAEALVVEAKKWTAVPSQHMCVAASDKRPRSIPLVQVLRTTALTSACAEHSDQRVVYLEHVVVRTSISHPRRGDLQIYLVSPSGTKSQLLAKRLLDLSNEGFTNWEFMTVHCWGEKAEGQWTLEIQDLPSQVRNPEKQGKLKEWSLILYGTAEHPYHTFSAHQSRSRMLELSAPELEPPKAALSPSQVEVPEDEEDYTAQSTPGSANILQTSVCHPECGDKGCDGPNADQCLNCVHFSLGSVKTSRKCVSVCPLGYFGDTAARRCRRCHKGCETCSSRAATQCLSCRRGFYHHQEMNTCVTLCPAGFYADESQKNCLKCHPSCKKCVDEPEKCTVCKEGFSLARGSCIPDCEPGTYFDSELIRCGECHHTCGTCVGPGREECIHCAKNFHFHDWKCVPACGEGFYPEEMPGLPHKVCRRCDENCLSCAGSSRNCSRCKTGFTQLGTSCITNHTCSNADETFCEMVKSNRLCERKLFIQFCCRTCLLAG
Experimental: as §1

PC7 = target: T3, PC7 (UniProt Q16549 142-667, limits assumed); assay: enzyme inhibition assay, fluorogenic substrate PyrRTKR-MCA
T3 sequence (looked up): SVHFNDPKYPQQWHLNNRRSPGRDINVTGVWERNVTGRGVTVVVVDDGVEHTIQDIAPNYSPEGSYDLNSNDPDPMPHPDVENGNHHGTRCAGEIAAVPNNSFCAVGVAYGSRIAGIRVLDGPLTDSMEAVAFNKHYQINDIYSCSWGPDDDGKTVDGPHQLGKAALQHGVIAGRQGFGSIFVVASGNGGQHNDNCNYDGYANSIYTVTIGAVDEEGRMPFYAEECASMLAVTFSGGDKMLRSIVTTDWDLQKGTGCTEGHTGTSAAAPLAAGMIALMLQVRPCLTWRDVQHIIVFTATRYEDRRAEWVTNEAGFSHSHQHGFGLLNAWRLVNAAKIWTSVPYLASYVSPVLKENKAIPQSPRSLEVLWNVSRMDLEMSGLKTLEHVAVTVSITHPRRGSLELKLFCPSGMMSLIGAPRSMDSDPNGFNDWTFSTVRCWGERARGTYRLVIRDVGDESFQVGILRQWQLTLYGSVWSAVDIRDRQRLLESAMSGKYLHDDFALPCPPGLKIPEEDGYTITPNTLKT
Experimental: as §1

furin = furin (UniProt P09958 108-715, limits assumed); assay: as above
furin, sequence (P09958 108-715 limits assumed): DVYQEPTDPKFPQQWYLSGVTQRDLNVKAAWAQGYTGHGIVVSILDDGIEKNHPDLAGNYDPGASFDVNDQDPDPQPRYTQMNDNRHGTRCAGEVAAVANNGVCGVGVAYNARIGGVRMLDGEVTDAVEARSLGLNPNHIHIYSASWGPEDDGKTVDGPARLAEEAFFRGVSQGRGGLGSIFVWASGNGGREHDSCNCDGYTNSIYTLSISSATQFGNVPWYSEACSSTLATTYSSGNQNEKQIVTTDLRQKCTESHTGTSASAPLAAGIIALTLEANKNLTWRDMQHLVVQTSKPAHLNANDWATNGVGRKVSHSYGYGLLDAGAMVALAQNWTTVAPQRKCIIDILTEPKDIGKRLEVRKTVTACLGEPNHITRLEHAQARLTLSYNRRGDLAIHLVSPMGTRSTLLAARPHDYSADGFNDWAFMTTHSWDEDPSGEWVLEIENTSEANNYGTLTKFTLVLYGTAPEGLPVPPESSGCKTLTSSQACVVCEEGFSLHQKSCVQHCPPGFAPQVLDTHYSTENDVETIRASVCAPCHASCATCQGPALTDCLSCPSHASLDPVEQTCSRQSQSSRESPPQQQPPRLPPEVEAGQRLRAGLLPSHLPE
Experimental: as §1

PACE4 [2] = target: T2, PACE4; assay: as above
Experimental: as §1

PC2 = target: T4, PC2 (UniProt P16519 110-638, limits assumed); assay: as above
T4 sequence (looked up): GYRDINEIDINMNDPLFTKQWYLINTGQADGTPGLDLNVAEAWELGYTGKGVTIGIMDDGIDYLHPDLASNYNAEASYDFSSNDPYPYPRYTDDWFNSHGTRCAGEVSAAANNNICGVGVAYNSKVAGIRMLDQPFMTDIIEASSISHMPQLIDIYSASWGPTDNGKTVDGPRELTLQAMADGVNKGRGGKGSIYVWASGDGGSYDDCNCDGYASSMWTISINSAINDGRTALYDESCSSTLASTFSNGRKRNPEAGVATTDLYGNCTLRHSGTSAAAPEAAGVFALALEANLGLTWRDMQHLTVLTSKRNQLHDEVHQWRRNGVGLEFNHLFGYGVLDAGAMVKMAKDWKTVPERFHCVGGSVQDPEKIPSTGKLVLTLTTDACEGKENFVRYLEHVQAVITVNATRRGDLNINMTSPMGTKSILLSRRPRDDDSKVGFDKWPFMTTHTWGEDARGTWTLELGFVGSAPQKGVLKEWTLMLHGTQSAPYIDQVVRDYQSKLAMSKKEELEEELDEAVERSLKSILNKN
Experimental: as §1

PC1/3 = target: T5, PC1/3 (UniProt P29120 111-753, limits assumed); assay: as above
T5 sequence (looked up): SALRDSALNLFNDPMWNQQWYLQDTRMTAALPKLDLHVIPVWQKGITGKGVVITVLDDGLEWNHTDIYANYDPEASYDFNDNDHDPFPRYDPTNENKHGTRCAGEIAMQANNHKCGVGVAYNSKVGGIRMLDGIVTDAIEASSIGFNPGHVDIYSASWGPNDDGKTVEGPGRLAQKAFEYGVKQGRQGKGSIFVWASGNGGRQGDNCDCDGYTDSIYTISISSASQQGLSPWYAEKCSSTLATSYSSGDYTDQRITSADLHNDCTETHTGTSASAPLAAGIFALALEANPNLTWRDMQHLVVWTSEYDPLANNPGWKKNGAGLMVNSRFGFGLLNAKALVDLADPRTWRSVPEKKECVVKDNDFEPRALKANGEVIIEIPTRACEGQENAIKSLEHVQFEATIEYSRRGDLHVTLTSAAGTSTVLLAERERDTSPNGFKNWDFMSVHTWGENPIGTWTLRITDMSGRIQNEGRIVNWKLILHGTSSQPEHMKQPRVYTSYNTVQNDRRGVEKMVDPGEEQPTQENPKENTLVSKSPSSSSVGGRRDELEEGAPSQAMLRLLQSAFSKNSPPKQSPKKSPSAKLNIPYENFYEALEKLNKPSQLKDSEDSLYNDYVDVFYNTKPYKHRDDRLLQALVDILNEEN
Experimental: as §1

PC5/6 = target: T6, PC5/6 (UniProt Q92824-2 115-913, limits assumed); assay: as above
T6 sequence (looked up): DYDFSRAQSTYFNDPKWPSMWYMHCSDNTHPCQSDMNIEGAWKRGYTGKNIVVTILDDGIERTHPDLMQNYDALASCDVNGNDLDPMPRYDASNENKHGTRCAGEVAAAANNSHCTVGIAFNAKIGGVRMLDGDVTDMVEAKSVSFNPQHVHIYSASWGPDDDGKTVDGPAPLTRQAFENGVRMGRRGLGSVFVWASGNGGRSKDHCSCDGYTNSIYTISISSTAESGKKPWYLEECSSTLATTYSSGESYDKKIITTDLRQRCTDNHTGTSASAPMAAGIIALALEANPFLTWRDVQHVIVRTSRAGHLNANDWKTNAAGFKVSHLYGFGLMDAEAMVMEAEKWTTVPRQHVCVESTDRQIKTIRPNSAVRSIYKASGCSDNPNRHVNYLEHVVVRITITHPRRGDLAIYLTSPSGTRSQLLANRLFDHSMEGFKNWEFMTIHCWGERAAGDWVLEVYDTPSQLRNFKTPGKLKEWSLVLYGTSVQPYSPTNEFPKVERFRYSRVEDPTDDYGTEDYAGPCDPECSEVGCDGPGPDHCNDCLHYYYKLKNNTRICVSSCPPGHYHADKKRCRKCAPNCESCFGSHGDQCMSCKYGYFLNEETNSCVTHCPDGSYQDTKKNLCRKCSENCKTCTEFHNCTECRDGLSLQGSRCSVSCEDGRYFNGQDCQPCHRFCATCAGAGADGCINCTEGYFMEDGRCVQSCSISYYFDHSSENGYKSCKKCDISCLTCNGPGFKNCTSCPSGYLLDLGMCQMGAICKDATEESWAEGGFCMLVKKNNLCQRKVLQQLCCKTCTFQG
Experimental: as §1

Ki (PC4): 164 nM
B1: LLLLLRVKR-NH2 (peptide)
peptide: LLLLLRVKR-NH2
notes: also called 5 Leu; multi-leucine peptide containing five leucines

fold more effective on PACE4 than the other PCs (PACE4 [1]): ≥ 9 fold | Ki (PC7): 54 nM and 50 nM | Ki (furin): 114 nM | Ki (PACE4 [2]): 6 nM and 5.5 nM and 5 nM | Ki (PC4): 205 nM | Ki (PC2): 18800 nM | Ki (PC1/3): 454 nM | Ki (PC5/6): 245 nM
B2: LLLLRVKR-NH2 (peptide)
peptide: LLLLRVKR-NH2
notes: also called 4 Leu; Multi-Leu (ML)
